Results on one molecule are retold here after patent US12104181 (University of Texas, dated 2024).

The experiment has as its target T1, TRIM7-3F (TRIM7 with C-terminal 3×FLAG epitope) (human, UniProt Q9C029 1-511).
T1 construct: also called WT TRIM7-3F; 3×Flag-tagged TRIM7
The experiment is described as follows: co-IP with anti-HA beads from co-transfected 293T cells, Western blot. In general terms: A western blot detects proteins with antibodies after separation by electrophoresis.

B1: HA-tagged MenV 2BC (other)
chain: PFTFKPRQRPVFQTQGAAVSSMAQTLLPNDLASKAMGSAFTALLDANEDAQKAMKIIKTLSSLSDAWENVKGTLNNPEFWKQLLSRCVQLIAGMTIAVMHPDPLTLLCLGVLTAAEITSQTSLCEEIAAKFKTIFTTPPPRFPVISLFQQQSPLKQVNDVFSLAKNLDWAVKTVEKVVDWFGTWVAQEEREQTLDQLLQRFPEHAKRISDLRNGMAAYVECKESFDFFEKLYNQAVKEKRTGIAAVCEKFRQKHDHATARCEPVVIVLRGDAGQGKSLSSQIIAQAVSKTIFGRQSVYSLPPDSDFFDGYENQFAAIMDDLGQNPDGSDFTTFCQMVSTTNLLPNMASLERKGTPFTSQLVVATTNLPEFRPVTIAHYPAVERRITFDYSVSAGPVCSKTEAGCKVLDVERAFRPTGDAPLPCFQNNCLFLEKAGLQFRDNRSKEILSLVDVIERAVTRIERKKKVLTAVQTLVAQ
notes: domain: 2BC
Consider B1, for which the binding result is reported as “no binding”.
